From patent US20160290995A1, “METHODS OF SELECTING AKT AGONISTS OR ANTAGONISTS” (OREGON HEALTH & SCIENCE UNIVERSITY, priority 2015, published 2016)

Target: PDGF-α receptor, endogenous on C3H10T1/2 mouse embryonic fibroblasts (mouse) (UniProt P26618)
Test: cell-based or functional assay

Chain of PDGF-α receptor, endogenous on C3H10T1/2 mouse embryonic fibroblasts (mouse) (P26618 25-1089): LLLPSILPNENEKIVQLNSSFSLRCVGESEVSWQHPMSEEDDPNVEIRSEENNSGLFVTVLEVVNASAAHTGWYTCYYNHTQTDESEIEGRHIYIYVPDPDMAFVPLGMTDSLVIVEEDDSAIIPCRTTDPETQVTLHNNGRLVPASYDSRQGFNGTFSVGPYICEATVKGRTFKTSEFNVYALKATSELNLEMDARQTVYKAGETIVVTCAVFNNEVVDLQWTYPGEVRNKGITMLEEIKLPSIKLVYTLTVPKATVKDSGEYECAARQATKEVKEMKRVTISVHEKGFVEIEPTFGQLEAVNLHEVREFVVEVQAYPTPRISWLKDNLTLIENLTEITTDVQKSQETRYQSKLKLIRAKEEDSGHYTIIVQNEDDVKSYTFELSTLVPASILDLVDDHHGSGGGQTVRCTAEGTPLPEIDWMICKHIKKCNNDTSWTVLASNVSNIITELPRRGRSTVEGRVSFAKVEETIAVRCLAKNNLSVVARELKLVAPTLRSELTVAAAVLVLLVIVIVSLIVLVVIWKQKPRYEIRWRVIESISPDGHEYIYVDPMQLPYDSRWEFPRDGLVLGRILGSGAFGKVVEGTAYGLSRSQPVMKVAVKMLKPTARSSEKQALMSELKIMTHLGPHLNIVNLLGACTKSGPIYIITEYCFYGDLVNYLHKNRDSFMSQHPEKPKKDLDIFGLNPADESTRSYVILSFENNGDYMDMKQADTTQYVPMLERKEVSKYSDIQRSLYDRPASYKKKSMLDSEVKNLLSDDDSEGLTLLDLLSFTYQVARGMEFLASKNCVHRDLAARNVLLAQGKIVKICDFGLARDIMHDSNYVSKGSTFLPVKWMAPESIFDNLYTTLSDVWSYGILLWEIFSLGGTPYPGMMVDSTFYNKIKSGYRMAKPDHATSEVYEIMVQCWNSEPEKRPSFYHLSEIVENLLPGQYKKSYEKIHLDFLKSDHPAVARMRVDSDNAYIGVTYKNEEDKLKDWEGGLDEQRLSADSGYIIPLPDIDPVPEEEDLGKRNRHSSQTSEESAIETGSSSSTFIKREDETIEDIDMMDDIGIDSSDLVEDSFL

Substance: neutralizing antibody to the PDGF-α receptor (#AF1062, R&D Systems)
- decrease in responses to sub-maximal concentrations of PDGF-BB (relative nuclear intensity of the FoxO1-clover reporter in C3H10T1/2 cells): 10%
